Substitutions are numbered along the chain they refer to.
B1: P056028-F-01 (protein)
chain: MGPTPTATAAGAAVAAASAAEQAAFRLVGHRNFVRFNPRSDRFQTLAFHHVELWCADAASAAGRFSFALGVPLAARSDLSTGNSAHASLLLRSGSLSLLFTAPYAHGADAATAALPSFSAAAARRFAADHGLAVRAVALRVADAEDAFRASVAAGARPAFGPVDLGRGFRLAEVELYGDVVLRYVSYPDGGAGEPFLPGFEGVASPGAADYGLSRFDHIVGNVPELAPAAAYMAGFTGFHEFAEFTTEDVGTTESGLNSMALANNSENVLLPLNEPVHGTKRRSQIQTFLDHHGGPGVQHIALASDDVLRTLREMRARSAMGGFEFLPPPLSDYYDGVRRCAGDVLTEAQINECQELGVMVDRDDEGVLLQIFTKPVGDRPTFFLEIIQRIGCMEKDEKGQEYQKGGCGGFGKGNFGQLFRSIEDYEKSLEAKRAAAAATAQGS
modifications: Zea mays variant form created by artificial means.
B2: P056028-A-05 (protein)
chain: B1 chain with G191A, P206Q, R340K, R421K, R434Q
modifications: Zea mays variant form created by artificial means.
B3: P056028-D-08 (protein)
chain: B1 chain with R340K, R421K
modifications: Zea mays variant form created by artificial means.
B4: P056028-A-10 (protein)
chain: B1 chain with G191A, P206Q, Y211L, E356K, R421K, R434Q
modifications: Zea mays variant form created by artificial means.
B5: P056028-A-04 (protein)
chain: B1 chain with G191A, E356R, L385I, R421K, R434Q
modifications: Zea mays variant form created by artificial means.
B6: P056028-A-09 (protein)
chain: B1 chain with P158K, G191A, Y211L, S214N, R421K, R434Q
modifications: Zea mays variant form created by artificial means.
B7: P056028-A-11 (protein)
chain: B1 chain with G191A, G417S, R421K, R434Q
modifications: Zea mays variant form created by artificial means.
B8: P056028-C-07 (protein)
chain: B1 chain with R340K, E356R, R421K
modifications: Zea mays variant form created by artificial means.
B9: P056028-A-07 (protein)
chain: B1 chain with P206Q, Y211L, R421K, R434Q
modifications: Zea mays variant form created by artificial means.
B10: P056028-A-08 (protein)
chain: B1 chain with L182M, G191A, P206Q, H278R, R340K, R421K, R434Q, A438T
modifications: Zea mays variant form created by artificial means.
B11: P056028-C-05 (protein)
chain: B1 chain with G191A, R340K, E356R, R421K, R434Q
modifications: Zea mays variant form created by artificial means.
B12: P056028-E-02 (protein)
chain: B1 chain with G191A, P206S, R421K, R434Q
modifications: Zea mays variant form created by artificial means.
B13: P056028-C-01 (protein)
chain: B1 chain with G191A, P206S, Y211L, R421K, R434Q
modifications: Zea mays variant form created by artificial means.

These molecules were tested on 4-hydroxyphenylpyruvate dioxygenase (HPPD) (assay: ON rate ratio: HPPD reaction rate with vs without inhibitor in the 70 to 90 second interval). Settings: Table 7; tembotrione; combinatorial variants.
Type: biochemical, Z. mays
Description: (§1) Higher KD (reduced affinity or increased insensitivity) can be attained with a numerically smaller ON rate, a larger OFF rate or both. To detect and quantify changes in kON and kOFF, observations of the time course of an HPPD reaction as inhibitor binds to and inactivates the enzyme (kON), or is released from a pre-formed enzyme-inhibitor complex (kOFF) were used, as shown in FIGS. 13A and 13B. In practice, a quantitative indicator of kON was obtained by monitoring the time courses of HPPD reactions containing 60 or 120 nM HPPD and 100 μM HPP in the presence and absence of 4 μM inhibitor (e.g., mesotrione or tembotrione). The ratio of the reaction rate with inhibitor to that without inhibitor during the 70 to 90 second interval of the reaction was termed the “ON rate ratio”. The smaller the actual kON, the more slowly the HPPD reaction decelerates and the higher the value is for the ON rate ratio. FIGS. 13A and 13B illustrate the contrasting reaction velocity in the 70-90 sec interval for maize wild-type HPPD (FIG. 13A) versus an improved variant (SEQ ID NO:78) (FIG. 13B).

Molecule | ON rate ratio
B1 | 0.718
B2 | 0.707
B3 | 0.681
B4 | 0.707
B5 | 0.724
B6 | 0.692
B7 | 0.706
B8 | 0.714
B9 | 0.726
B10 | 0.669
B11 | 0.715
B12 | 0.761
B13 | 0.742

These molecules were tested on 4-hydroxyphenylpyruvate dioxygenase (HPPD) (assay: OFF rate ratio: release of inhibitor from pre-formed enzyme-inhibitor complex). Settings: Table 7; tembotrione; combinatorial variants.
Type: biochemical, Z. mays
Procedure: A quantitative indicator of kOFF can be obtained by observing the time course of an HPPD reaction as inhibitor is released from a pre-formed enzyme-inhibitor complex. HPPD and inhibitor were incubated together at concentrations of 7.2 and 8 μM, respectively. Incubations with the same concentrations of enzyme but no inhibitor were done in parallel. After 1 hr at room temperature, 5 to 10 μl of the enzyme-inhibitor complex was dispensed into the wells of the assay plate. Reactions were started with the addition of 290 to 295 μl of 25 mM Hepes, pH 7, 2 mM ascorbate, 10 μM FeSO4, 100 μM HPP and 50 nM HGD. The reactions were monitored at 320 nm for 12 min. Reaction velocity accelerates as inhibitor is released from the enzyme until a steady state is reached, during which the reaction velocity is constant. The ratio of the steady state rate in mixtures containing herbicidal inhibitor to the initial velocity of mixtures lacking inhibitor is termed the “OFF rate ratio”.
Another parameter to record is the time span required for the reactions with inhibitor to reach the steady state. FIGS. 13C and 13D illustrate the contrasting time span in which maize wild-type HPPD (FIG. 13C) and an improved variant (SEQ ID NO:78) (FIG. 13D) dissociated from mesotrione, as indicated by the accelerating reaction rates. The plateau of absorbance is due to exhaustion of the substrate. With the improved variant, not only was the steady state attained in a shorter time span (80 sec for the variant versus 280 sec for wild type), the velocity attained was twice as high as with wild type, though the enzymes were present at the same concentration (240 nM). This is because a larger fraction of the variant enzyme is free of inhibitor compared to the wild-type enzyme, and the kcat for both is nearly the same, about 220 min^−1.

Molecule | OFF rate ratio
B1 | 0.304
B2 | 0.280
B3 | 0.361
B4 | 0.367
B5 | 0.133
B6 | 0.339
B7 | 0.366
B8 | 0.382
B9 | 0.329
B10 | 0.324
B11 | 0.375
B12 | 0.326
B13 | 0.310

What follows are molecules tested on 4-hydroxyphenylpyruvate dioxygenase (HPPD) (assay: Insensitivity parameter (ON × OFF) and trait fitness (ON × OFF × kcat/KM or × kcat)). Settings: Megatable 3; shuffled variants.
Type: biochemical, Z. mays
Set-up: key to ON × OFF / Insensitivity, mesotrione, ON × OFF / Insensitivity, tembotrione, ON × OFF / Insensitivity, topramezone, ON × OFF / Insensitivity, sulcotrione, ON × OFF / Insensitivity, isoxaflutole (DKN), ON × OFF: insensitivity = ON rate ratio × OFF rate ratio (surrogate for KD)
Description: Because substrate and inhibitors bind in the same site, the high concentration of substrate present may competitively trap the inhibitor and prevent it from binding again. To be sure that improvement in ON rates is being taken into account, the ON and OFF rate ratios were multiplied, creating an “insensitivity parameter” that is a surrogate for KD. KD is expressed as kOFF/kON, but because the ON rate ratio is an inverse parameter (the higher the value of ON rate ratio, the lower the value of the represented phenomenon, kON), it is appropriate to multiply ON and OFF rate ratios rather then divide OFF rate ratio by ON rate ratio. Another parameter, which quantifies the combined catalytic and insensitivity properties of the enzyme is kcat/KM×ON rate ratio×OFF rate ratio, and is termed “trait fitness”. This parameter is intended to have a meaning similar to the commonly used expression kcat/KM×Ki.

Molecule | ON × OFF | ON × OFF × kcat
B1 | 0.218 | 6.82
B2 | 0.198 | 3.50
B3 | 0.246 | 6.77
B4 | 0.260 | 4.35
B5 | 0.096 | 1.06
B6 | 0.235 | 3.26
B7 | 0.258 | 2.21
B8 | 0.273 | 5.80
B9 | 0.239 | 4.65
B10 | 0.217 | 5.68
B11 | 0.268 | 5.80
B12 | 0.248 | 5.86
B13 | 0.230 | 5.95

Same assay, conditions: Table 7; tembotrione; combinatorial variants

Molecule | ON × OFF | ON × OFF × kcat
B1 | 0.218 | 6.82
B2 | 0.198 | 3.50
B3 | 0.246 | 6.77
B4 | 0.260 | 4.35
B5 | 0.096 | 1.06
B6 | 0.235 | 3.26
B7 | 0.258 | 2.21
B8 | 0.273 | 5.80
B9 | 0.239 | 4.65
B10 | 0.217 | 5.68
B11 | 0.268 | 5.80
B12 | 0.248 | 5.86
B13 | 0.230 | 5.95

What follows are molecules tested on 4-hydroxyphenylpyruvate dioxygenase (HPPD) (assay: Estimate of kcat from initial rate at saturating hydroxyphenylpyruvate without inhibitor (ON rate ratio assay)). Settings: Megatable 3; shuffled variants.
Type: biochemical, Z. mays
Description: as §1
Thirty nine variants were desensitized to tembotrione compared with the backbone enzyme, Round 7, variant 9070 (SEQ ID NO:2) and all were desensitized compared with maize wild type HPPD (SEQ ID NO:1). Because the assay for ON rate ratio includes an initial rate measurement at saturating hydroxyphenylpyruvate without inhibitor and with known enzyme concentration, an estimate of kcat was available. Taking into account kcat and insensitivity parameters, 30 variants were selected for measurement of substrate saturation kinetic parameters and re-evaluation of insensitivity to tembotrione. The kinetic and insensitivity parameters were determined as described in Example 1, and were multiplied to generate the “trait fitness” parameter. The complete list of variants, i.e., of selected single substitutions in SEQ ID NO:2, analyzed with multiple inhibitors and the results obtained are shown in Table 6. The same set of 30 variants were evaluated for insensitivity to mesotrione, sulcotrione, isoxaflutole (its active diketonitrile form, abbreviated DKN in Table 6) and topramezone.

Molecule | kcat [s⁻¹]
B1 | 0.522
B2 | 0.295
B3 | 0.458
B4 | 0.28
B5 | 0.185
B6 | 0.232
B7 | 0.143
B8 | 0.353
B9 | 0.325
B10 | 0.437
B11 | 0.362
B12 | 0.393
B13 | 0.432

Same assay, conditions: Table 7; combinatorial variants

Molecule | kcat [s⁻¹]
B1 | 0.522
B2 | 0.295
B3 | 0.458
B4 | 0.28
B5 | 0.185
B6 | 0.232
B7 | 0.143
B8 | 0.353
B9 | 0.325
B10 | 0.437
B11 | 0.362
B12 | 0.393
B13 | 0.432
